Results published in patent US20220125947A1 (published 2022).

The binders below were run against T1, γδ T cell receptor on human γδ T cells (human) (assay: flow cytometry, DRC binding 37 C, human γδ T cells).
T1 construct: also called AG000003021 (γδ T cells)
Description: (§1) Binding of antibodies to human γδ T cells or SKW cell lines expressing Vγ9/Vδ2, Vγ9/Vδ2 or Vγ5/Vδ2 was carried out by flow cytometry. Briefly, the cells were centrifuged at 300×g for 5 minutes and the pellet was resuspended in 34 ml fresh media (in RPMI+10% FBS). 50 μL of the cells were then plated (44K cells/well) into assay plates. Samples were incubated for one hour at 37° C. in tissue culture (TC) incubator followed by wash steps by adding 100 μl FACS staining buffer. Secondary detention antibodies (A647 conjugated anti-human IgG Fc specific antibody (2 μg/mL) along with AF488 anti mouse CD3, clone OKT3 at 1 ug/mL) were added at 50 μL/well to appropriate wells according to the plate map. After incubating for 60 minutes at 37° C. in the TC incubator, cells were again washed as described above. This is followed by resuspension in 20 μL/well running buffer containing 1:1000 dilution of Sytox blue dead cell stain and the plates were run on iQue Screener.
(§2) Gating and data analysis: Human anti-human Vγ9 antibody (VG9B2 mAb at 10 nM) was used to mark the gating of positive population. All cells were first gated for singlets on SCS-A vs. SCS-H dot plot, live/dead followed by CD3 positive population, and this subset of CD3 positive population was gated for Vγ9 positive binding using positive control mAb. Cells were also assessed for cell binding of control mAbs by RL1 (A647) Geomeans from the live cell population. Advanced metrics were used and normalization metrics were chosen to calculate fold over background wells containing secondary antibody alone (designated as ‘background’ within ForeCyt settings).

Binder	Max. Activity [fold over background]
VG9B450 (antibody, human IgG1, lambda, IgG1, lambda) heavy: not shown light: QSVLTQPASVSGSPGQSITISCTGTSSDVGGYNYVSWYQQHPGKAPKLMIYEVSNRPSGVSNRFSGSKSGNTASLTISGLQAEDEADYYCSSYTSTSVVFGGGTKLTVLGQPKAAPSVTLFPPSSEELQANKATLVCLISDFYPGAVTVAWKADSSPVKAGVETTTPSKQSNNKYAASSYLSLTPEQWKSHRSYSCQVTHEGSTVEKTVAPTECS	928
VG9B460 (antibody, human IgG1, lambda, IgG1, lambda) heavy: not shown light: QLVLTQPASVSGSPGQSITISCTGTSSDVGGYNYVSWYQQHPGKAPKLMIYEVSNRPSGVSNRFSGSKSGNTASLTISGLQAEDEADYYCSSYTSTSVVFGGGTKLTVLGQPKAAPSVTLFPPSSEELQANKATLVCLISDFYPGAVTVAWKADSSPVKAGVETTTPSKQSNNKYAASSYLSLTPEQWKSHRSYSCQVTHEGSTVEKTVAPTECS	767
VG9B464 (antibody, human IgG1, lambda, IgG1, lambda) heavy: not shown light: QSALTQPASVSGSPGQSITISCTGTSSDVGGYNYVSWYQQHPGKAPKLMIYEVSNRPSGVSNRFSGSKSGNTASLTISGLQAEDEADYYCSSYTSTSVVFGGGTKLTVLGQPKAAPSVTLFPPSSEELQANKATLVCLISDFYPGAVTVAWKADSSPVKAGVETTTPSKQSNNKYAASSYLSLTPEQWKSHRSYSCQVTHEGSTVEKTVAPTECS	886
VG9B434 (antibody, human IgG1, lambda, IgG1, lambda) heavy: not shown light: QSVLTQPASVSGSPGQSITISCTGTSSDVGGYNYVSWYQQHPGKAPKLMIYEVSNRPSGVSNRFSGSKSGNTASLTISGLQAEDEADYYCSSYTSTSVVFGGGTKLTVLGQPKAAPSVTLFPPSSEELQANKATLVCLISDFYPGAVTVAWKADSSPVKAGVETTTPSKQSNNKYAASSYLSLTPEQWKSHRSYSCQVTHEGSTVEKTVAPTECS	804
VG9B437 (antibody, human IgG1, lambda, IgG1, lambda) heavy: not shown light: QSALTQPASVSGSPGQSITISCTGTSSDVGGYNYVSWYQQHPGKAPKLMIYEVSNRPSGVSNRFSGSKSGNTASLTISGLQAEDEADYYCSSYTSTSVVFGGGTKLTVLGQPKAAPSVTLFPPSSEELQANKATLVCLISDFYPGAVTVAWKADSSPVKAGVETTTPSKQSNNKYAASSYLSLTPEQWKSHRSYSCQVTHEGSTVEKTVAPTECS	885
VG9B442 (antibody, human IgG1, lambda, IgG1, lambda) heavy: not shown light: QSALTQPASVSGSPGQSITISCTGTSSDVGGYNYVSWYQQHPGKAPKLMIYEVSNRPSGVSNRFSGSKSGNTASLTISGLQAEDEADYYCSSYTSTSVVFGGGTKVTVLGQPKAAPSVTLFPPSSEELQANKATLVCLISDFYPGAVTVAWKADSSPVKAGVETTTPSKQSNNKYAASSYLSLTPEQWKSHRSYSCQVTHEGSTVEKTVAPTECS	856
VG9B438 (antibody, human IgG1, lambda, IgG1, lambda) heavy: not shown light: SYELTQPASVSGSPGQSITISCTGTSSDVGGYNYVSWYQQHPGKAPKLMIYEVSNRPSGVSNRFSGSKSGNTASLTISGLQAEDEADYYCSSYTSTSVVFGGGTKLTVLGQPKAAPSVTLFPPSSEELQANKATLVCLISDFYPGAVTVAWKADSSPVKAGVETTTPSKQSNNKYAASSYLSLTPEQWKSHRSYSCQVTHEGSTVEKTVAPTECS	895
VG9B436 (antibody, human IgG1, lambda, IgG1, lambda) heavy: not shown light: QSVLTQPASVSGSPGQSITISCTGTSSDVGGYNYVSWYQQHPGKAPKLMIYEVSNRPSGVSNRFSGSKSGNTASLTISGLQAEDEADYYCSSYTSTSVVFGGGTKLTVLGQPKAAPSVTLFPPSSEELQANKATLVCLISDFYPGAVTVAWKADSSPVKAGVETTTPSKQSNNKYAASSYLSLTPEQWKSHRSYSCQVTHEGSTVEKTVAPTECS	812
VG9B457 (antibody, human IgG1, lambda, IgG1, lambda) heavy: not shown light: QAVLTQPASVSGSPGQSITISCTGTSSDVGGYNYVSWYQQHPGKAPKLMIYEVSNRPSGVSNRFSGSKSGNTASLTISGLQAEDEADYYCSSYTSTSVVFGGGTKLTVLGQPKAAPSVTLFPPSSEELQANKATLVCLISDFYPGAVTVAWKADSSPVKAGVETTTPSKQSNNKYAASSYLSLTPEQWKSHRSYSCQVTHEGSTVEKTVAPTECS	865

The binders below were run against T2, γδ T cell receptor on human γδ T cells (human) (assay: flow cytometry DRC binding 37 C, human γδ T cells).
T2 construct: whole, on cells; Target is the γδ TCR on a mixed population of human γδ T cells; also called AG000003021 (γδ T cells)
Description: as §1, §2

Binder	Max. Activity [fold over background]
VG9B41 (antibody, human IgG1, kappa, V domains shown, IgG1, kappa; specificity column: Vd2) VH: QVQLQESGPQLVRPGASVKISCKASGYSFTTYWMHWVKQRPGQGLEWIGLIDPSDSETRLNQKFKDKATLTVDKSSSTAYMRLSSPTSEDSAVYYCASNRWLLGWGQGTMVTVSS VL: EIVLTQTPLSSPVTLGQPASISCRSSQSLVHSDGNTYLSWLHQRPGQPPRLLIYKISNRFSGVPDRFSGSGAGTDFTLKISRVETEDVGVYYCVQTREFPLTFGGGTKVEIKR	137
VG9B125 (antibody, human IgG1, kappa, V domains shown, IgG1, kappa; specificity column: g/d constant) VH: EVQLVESGGTLVQPGGSLRLSCAVSGFTFSSYDMNWVRQAPGKGLEWVSYISSSSTAKYYADSVKGRFTISRDNAKNSLYLQMNSLWDEDTAVYYCAREDIVVVTPILQHWGQGTTVTVSS VL: EIVMTQSPATLSLSPGERAILSCRASQSVSKDLAWYQQKPGQAPRLLIYDASNRATGIPARISGSGSGTDFTLTISSLEPEDFAVYYCQQRINWPLFTFGPGTKVEIKR	1990
VG9B369 (antibody, human IgG1, kappa, V domains shown, IgG1, kappa; specificity column: g/d constant) VH: EVQLLESGPTLVKPTQTLTLTCTFSGFSLSTIGVGVGWIRQPPGKALEWLSLIYWNDDKRYNPSLKSRLTITKDTSKNQVVLTMTNMDPVDTATYYCAHSHDWVHAFDIWGQGTMVTVSS VL: DIVMTQSPSSLSASVGDRVTITCQASQDISHYLNWYQQKPGKAPKFLIYDASNLDTGVPSRFSGSGSGTDFTFTISSLQPEDIATYYCQQYDNFPLTFGGGTKVEIKR	2430
VG9B53 (antibody, human IgG1, kappa, V domains shown, IgG1, kappa; specificity column: Vd2) VH: QVQLQESGPGLVKPSETLSLTCTVSGGSISSYYWSWIRQPAGKGLEWIGRIHTIGSINYNPSLKSRVTMSVDTSKNQFSLKLSSVTAADTAVYYCAMEGVGATNYYYGMAVWGRGTMVTVSS VL: not shown	536
VG9B386 (antibody, human IgG1, kappa, V domains shown, IgG1, kappa; specificity column: g/d constant) VH: EVQLVESGGGLVKPGGSLRLSCAASGFTFSSYSMIWVRQAPGKGLEWVSSIGSSSTYIYYADSVRGRFTISRDNAKTSLYLQMNSLRAEDTAMYFCARDGETGGFDYWGQGILVTVSS VL: EIVMTQSPGTLSLSPGERATLSCRASQSISRSYLAWYQQKPGQPPRLLIYGPSNRATGIPDRFSASGSGTDFTLTNSRLEPEDFAVYYCQQYGSLPLTFGGGTKVEIKR	2110
VG9B189 (antibody, human IgG1, lambda, V domains shown, IgG1, lambda; specificity column: Vd2) VH: EVQLVQSGGGLVKPGASLKLSCAASGFTFSNHGMSWVRQTSDKRLEWVASITRGGDTTYYPDNVKGRFTISRENAKNTLYLQMSSLKSDDTALYYCTRGPLTVGYAMDYWGQGTTVTVSS VL: QSVVTQPPSASGSPGQSVTISCTGTSSDVGGYNYVSWYQQHPGKAPKLMIYEVSKRPSGVPDRFSGSKSGNTASLTVSGLQAEDEADYYCNSYAGSNNFEVFGGGTKVTVLG	739
VG9B136 (antibody, human IgG1, kappa, V domains shown, IgG1, kappa; specificity column: g/d constant) VH: QVQLQQSGPGLVKPSQTLSLTCAISGDSVSSNRAAWNWIRQSPSKGLEWLGRTYYRSKWYNEYAASVKSRMSINPDTSKNQFSLQLNSVTPEDTALYYCARDLWELREACDIWGQGTMVTVSS VL: DIVMTQSPSFLSTFVGDRVTITCRASQGISSYLAWYQQKPGKVPKLLIYVASTLQSGVPSRFSGSGSGTEFTLTISSLQPEDFATYYCQQLNSYPFTFGPGTKVDIKR	2680
VG9B112 (antibody, human IgG1, kappa, V domains shown, IgG1, kappa; specificity column: g/d constant) VH: QVQLQQSGPGLVKPSQTLSLTCAISGDSVSSNSAAWNWIRQSPSRGLEWLGGTYYRSKWFNNYAVSVKSRITINPDTSTNQFSLQLNSVTPADTAVYYCARGEWGLRDAFDIWGQGTMVTVSS VL: DIQMTQSPSFLSASVGDRVIITCRASQGIHSYLAWYQQKPGKVPKLLIYVASTLQSGVPSRFSGSGSGTEFTLTISSLQPEDFATYYCQQLNSYPWTFGQGTKLEIKR	1990
VG9B144 (antibody, human IgG1, lambda, V domains shown, IgG1, lambda; specificity column: g/d constant) VH: QVQLVQSGAEVKKPGASVKVSCKASGYTFTGYYMHWMRQAPGQGLEWMGWINPNSGATNKEQKFQGRVTMTRDTSISTAYMELSRLRSDDTAVYYCAREDDAFDVWGQGTMVTVSS VL: SSELTQDPAVSVALGQTVRITCQGDNLRNYYATWFQQKPGQAPVLVFFGKNNRPSGIPDRFSGSSSGDTASLTITGAQAEDEADYYCNSRDSSGNHVVFGGGTKLTVLG	2430
VG9B410 (antibody, human IgG1, kappa, IgG1, kappa; specificity column: g/d constant) heavy: not shown light: DIQMTQSPSSVSASVGDRVTITCRASQGINSWLAWYQQKPGNAPKLLIYAASSLQSGVPSRFSGIGSGTDFIFTISSLQPEDFASYYCQQANSFPWTFGQGTKVEIKRTVAAPSVFIFPPSDEQLKSGTASVVCLLNNFYPREAKVQWKVDNALQSGNSQESVTEQDSKDSTYSLSSTLTLSKADYEKHKVYACEVTHQGLSSPVTKSFNRGEC	2250
